{"source": "patent US6723697B2", "about": "“IL-16 antagonists” (Research Corporation Technologies, Inc., priority 1999, dated 2004)", "molecules": {"B1": {"name": "NLTCEVWGPTSPKLMLSLKLENKEAKVSKREKAVWVLNPEAGMWNCLLSDSGQVLLESNIKVLPTWSTPVQPM (peptide)", "chain": "NLTCEVWGPTSPKLMLSLKLENKEAKVSKREKAVWVLNPEAGMWNCLLSDSGQVLLESNIKVLPTWSTPVQPM", "modifications": "OTHER INFORMATION: Description of Artificial Sequence:IL-16 antagonist peptide", "notes": "human CD4 D4 with glutamine 346 to asparagine"}}, "key": {"[1]": {"biological_target": "HIV-1 gp120 (Human immunodeficiency virus type 1 group M subtype B, UniProt P04578)", "settings": "human CD4 point mutant", "experimental": "Cell migration was assessed using a modified Boyden chamber. (Center, et al., (1982) J. Immunol. 128:2563-2568; Cruikshank, et al., (1982) J. Immunol. 128:2569-2574). […] For blocking experiments, 10^−9 M murine rIL-16 with various concentrations of oligopeptides were mixed and placed in the lower well. The upper and lower wells were separated by 8 μm pore size nitrocellulose filter membrane (Neuro Probe). Following incubation (3 h, 37° C.), the membranes were removed, stained with hematoxylin, and dehydrated. Cell migration was quantified by counting the number of cells migrating beyond a depth of 40 μm. Counts were compared with control cells exposed to M199-HPS alone, which was normalized to 100%. Cell migration is expressed as the mean % control migration. All samples were tested in duplicate, with five high power fields counted in each duplicate."}, "[2]": {"biological_target": "T1, murine rIL-16 (Mus musculus, UniProt O54824)", "T1 construct": "polyhistidine fusion protein containing the 119 C-terminal residues encoded by the previously reported murine cDNA; polyhistidine (cleaved yes); made in house; host or cells: Escherichia coli strain HMS 174, vector pET16b", "T1 sequence (O54824 1204-1322)": "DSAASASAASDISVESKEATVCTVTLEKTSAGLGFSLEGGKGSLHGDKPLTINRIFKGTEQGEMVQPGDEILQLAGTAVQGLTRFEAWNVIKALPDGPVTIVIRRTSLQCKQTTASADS", "experiment": "IL-16-stimulated T-lymphocyte migration, human CD4 D4 point mutants", "type": "cell-based", "settings": "human CD4 D4 wild type or point mutant, rIL-16 10^-9 M", "experimental": "Point mutations at Leu 348 and Leu 349 in human CD4 were prepared as follows.\nInitially 100 ng of wild type human CD4 cDNA (Richard Axel, Columbia University, N.Y.) contained within the mammalian expression vector pcDNA3.1(−) (Invitrogen, Carlsbad, Calif.) was subjected to the polymerase chain reaction (PCR) in the presence of 125 ng of each set of primer pairs. PCR conditions were as follows:\nThe time for the elongation step varied according to the relationship of 2 minutes per kilobase of plasmid DNA length. The product was then subjected to restriction digestion with the enzyme Dpn for 1 h. at 37° C. Dpn is specific for methylated nucleotides and therefore will only cut the original wide type CD4-plasmid DNA. The transformation reaction required the addition of 1 μl of the digest to 50 μl of Epicurean Blue Eschericia coli which was incubated on ice for 30 min. and finally heat shocked 42° C., 45 sec to seal the supercompent bacteria. The resultant bacteria culture was selected on ampicillin plates and sequenced to confirm mutagenesis.\nCell migration was assessed using a modified Boyden chamber. […] Cell migration is expressed as the mean % control migration.\nResults from multiple experiments were analyzed using Student's t test for paired variables, and Tukey's test for multiple variables. A P value<0.05 was considered significant.\n(FIGS. 10A and 10B). […] (FIGS. 11A and 11B)."}}}
{"molecule": "B1", "values": [{"measurement": "inhibition of HIV-1 gp120-stimulated T-lymphocytes", "setting": "[1]", "value": "no loss in inhibition"}, {"measurement": "inhibition of IL-16-stimulated T-lymphocyte migration", "setting": "[2]", "value": "IL-16-inhibitory activity"}, {"measurement": "inhibition of IL-16-stimulated T-lymphocyte migration", "setting": "[2]; listed as human CD4 (Q346→N)", "value": "no loss in inhibition"}]}
